The source of these data is IntAct's records for PubMed 11940652.

The labels stand for the following.
B1: Serine/threonine-protein kinase STE20 (Saccharomyces cerevisiae), Q03497 (parent)
chain: MSNDPSAVSELPDKDSLDNGISNDNERAMGGNGDGGDGLRLPRTTGTLNVNALQKGTNAAHEAGGYKSMDPAKNAETTNDDDNNVVSLDDPIQFTRVSSSSVISGMSSSMSPHSNIDETKSLEAVTPNINTSNITPDHSADNTFSTINASESDHQFNDTLLSKLSLTDSTETIENNATVKHQQPVASSTVNSNKSSTDIRRATPVSTPVISKPSMTTTPRQINSASHSLSNPKHKQHKPKVKPSKPEAKSKPVSVKKSFPSKNPLKNSSPPKKQTEKSYYSSSSKKRKSGSNSGTLRMKDVFTSFVQNIKRNSQDDKRASSSSNNSSSSSITTALRISTPYNAKHIHHVGVDSKTGEYTGLPEEWEKLLTSSGISKREQQQNMQAVMDIVKFYQDVTETNGEDKMFKTFNTTTGLPGSPQVSTPPANSFNKFPPSTSDSHNYGSRTGTPMSNHVMSPTLNTDSSSANGKFIPSRPAPKPPSSASASAPIIKSPVMNSAANVSPLKQTHAPTTPNRTSPNRSSISRNATLKKEEQPLPPIPPTKSKTSPIISTAHTPQQVAQSPKAPAQETVTTPTSKPAQARSLSKELNEKKREERERRKKQLYAKLNEICSDGDPSTKYANLVKIGQGASGGVYTAYEIGTNVSVAIKQMNLEKQPKKELIINEILVMKGSKHPNIVNFIDSYVLKGDLWVIMEYMEGGSLTDVVTHCILTEGQIGAVCRETLSGLEFLHSKGVLHRDIKSDNILLSMEGDIKLTDFGFCAQINELNLKRTTMVGTPYWMAPEVVSRKEYGPKVDIWSLGIMIIEMIEGEPPYLNETPLRALYLIATNGTPKLKEPENLSSSLKKFLDWCLCVEPEDRASATELLHDEYITEIAEANSSLAPLVKLARLKKVAENMDADEDNDDDNDNEHINKTNNCDDNNDSKETVNLDVTEDDKQK

The variants in this experiment derive from B1. The settings on record: with cdc42_yeast CDC42, P19073.
cdc42_yeast CDC42, P19073, sequence (P19073 whole entry): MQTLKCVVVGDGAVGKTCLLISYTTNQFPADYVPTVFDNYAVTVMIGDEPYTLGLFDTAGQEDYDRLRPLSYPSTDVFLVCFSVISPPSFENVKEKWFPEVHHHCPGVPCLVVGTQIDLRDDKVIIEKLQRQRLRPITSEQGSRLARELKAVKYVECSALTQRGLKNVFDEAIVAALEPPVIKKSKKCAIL
As for S338A;H345G, the “effect of a mutation on the interaction” value is on record as “decreasing interaction”.
